Source: the supplement of paper PMC10567573

B1: SCARA5 (parent)
chain: VTEDLRLKDWEHSIALRNISLAKG
B2: KRT18 (parent)
chain: KSQDLAKIMADIRAQYDELARKNR

Variants of: B1
Test: protein stability index of a GFP-peptide fusion (GPS, HEK-293T) (PSI 1-6); higher = more stable
Details: c terminus: a fixed tail appended
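Further: lentivirally expressed fusions sorted by FACS into six bins by GFP to DsRed ratio, PSI derived from sequencing read proportions per bin multiplied by bin number.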

First: VTEDLRLKDWEHSIALRPISLAKG [N18P]
Second: VTEDLRLKDWEHSIALRFISLAKG [N18F]
The protein stability index of the first is higher: 2.81 for the first, 1.86 for the second.

Compared with VTEDLRLKDWEHSIALRKISLAKG [N18K], VTEDLRLKDWEHSIALRYISLAKG [N18Y] is lower in protein stability index: 3.5 for the first, 1.95 for the second.

Compared with VTEDLRLKDWEHSIALRMISLAKG [N18M], VTEDLRLKDWEHSIALRSISLAKG [N18S] is higher in protein stability index: 1.81 for the first, 3.37 for the second.

Going from VTEDLRLKDWEHSIALRWISLAKG [N18W] to VTEDLRLKDWEHSIALRAISLAKG [N18A], the protein stability index falls from 2.47 to 2.25.

Compared with VTEDLRLKDWEHSIALRRISLAKG [N18R], VTEDLRLKDWEHSIALRLISLAKG [N18L] is lower in protein stability index: 3.15 for the first, 1.35 for the second.

First: VTEDLRLKDWEHSIALRGISLAKG [N18G]
Second: VTEDLRLKDWEHSIALRDISLAKG [N18D]
The protein stability index of the first is lower: 3.6 for the first, 3.81 for the second.

Going from VTEDLRLKDWEHSIALRVISLAKG [N18V] to VTEDLRLKDWEHSIALRCISLAKG [N18C], the protein stability index rises from 1.76 to 2.17.

First: VTEDLRLKDWEHSIALRNISLAKH [G24H]
Second: VTEDLRLKDWEHSIALRNISLAKI [G24I]
The protein stability index of the first is higher: 3.3 for the first, 2.42 for the second.

Going from VTEDLRLKDWEHSIALRNISLAKS [G24S] to VTEDLRLKDWEHSIALRNISLAKP [G24P], the protein stability index falls from 3.31 to 3.09.

First: VTEDLRLKDWEHSIALRNISLAKR [G24R]
Second: VTEDLRLKDWEHSIALRNISLAKL [G24L]
The protein stability index of the first is higher: 3.46 for the first, 2.04 for the second.

Compared with VTEDLRLKDWEHSIALRNISLAKA [G24A], VTEDLRLKDWEHSIALRNISLAKN [G24N] is lower in protein stability index: 3.4 for the first, 3.06 for the second.

Going from VTEDLRLKDWEHSIALRNISLAKW [G24W] to VTEDLRLKDWEHSIALRNISLAKQ [G24Q], the protein stability index rises from 2.39 to 3.49.

Compared with VTEDLRLKDWEHSIALRNISLAKM [G24M], VTEDLRLKDWEHSIALRNISLAKF [G24F] is lower in protein stability index: 2.95 for the first, 2.49 for the second.

Going from VTEDLRLKDWEHSIALRNISLAKC [G24C] to VTEDLRLKDWEHSIALRNISLAKT [G24T], the protein stability index rises from 2.83 to 3.43.

Going from VTEDLRLKDWEHSIALRNISLAKD [G24D] to VTEDLRLKDWEHSIALRNISLAKE [G24E], the protein stability index rises from 4.08 to 4.13.

Compared with VTEDLRLKDWEHSIALRNISLAKK [G24K], VTEDLRLKDWEHSIALRNISLAKV [G24V] is lower in protein stability index: 3.65 for the first, 2.26 for the second.

First: VTEDLRLKDWEHSIALRNISLAKY [G24Y]
Second: VTEDLRLKDWEHSIALRNISLDKG [A22D]
The protein stability index of the first is lower: 3.14 for the first, 3.73 for the second.

First: VTEDLRLKDWEHSIALRNISLLKG [A22L]
Second: VTEDLRLKDWEHSIALRNISLNKG [A22N]
The protein stability index of the first is lower: 2.67 for the first, 3.61 for the second.

Compared with VTEDLRLKDWEHSIALRNISLKKG [A22K], VTEDLRLKDWEHSIALRNISLQKG [A22Q] is lower in protein stability index: 3.95 for the first, 3.51 for the second.

Going from VTEDLRLKDWEHSIALRNISLYKG [A22Y] to VTEDLRLKDWEHSIALRNISLEKG [A22E], the protein stability index rises from 2.23 to 3.69.

Going from VTEDLRLKDWEHSIALRNISLFKG [A22F] to VTEDLRLKDWEHSIALRNISLRKG [A22R], the protein stability index rises from 3.06 to 3.33.

Going from VTEDLRLKDWEHSIALRNISLTKG [A22T] to VTEDLRLKDWEHSIALRNISLHKG [A22H], the protein stability index rises from 2.97 to 3.9.

Compared with VTEDLRLKDWEHSIALRNISLGKG [A22G], VTEDLRLKDWEHSIALRNISLIKG [A22I] is higher in protein stability index: 3.14 for the first, 3.37 for the second.

Compared with VTEDLRLKDWEHSIALRNISLMKG [A22M], VTEDLRLKDWEHSIALRNISLWKG [A22W] is lower in protein stability index: 2.82 for the first, 2.16 for the second.

Compared with VTEDLRLKDWEHSIALRNISLSKG [A22S], VTEDLRLKDWEHSIALRNISLPKG [A22P] is higher in protein stability index: 3.24 for the first, 3.77 for the second.

First: VTEDLRLKDWEHSIALRNISLVKG [A22V]
Second: VTEDLRLKDWEHSIALRNISLCKG [A22C]
The protein stability index of the first is lower: 3.23 for the first, 3.37 for the second.

First: VTEDLRLKDWEHSIALRNISLATG [K23T]
Second: VTEDLRLKDWEHSIALRNISLADG [K23D]
The protein stability index of the first is lower: 2.85 for the first, 3.84 for the second.

Going from VTEDLRLKDWEHSIALRNISLAEG [K23E] to VTEDLRLKDWEHSIALRNISLAYG [K23Y], the protein stability index falls from 3.93 to 1.64.

Going from VTEDLRLKDWEHSIALRNISLANG [K23N] to VTEDLRLKDWEHSIALRNISLASG [K23S], the protein stability index falls from 3.48 to 3.3.

Going from VTEDLRLKDWEHSIALRNISLARG [K23R] to VTEDLRLKDWEHSIALRNISLAMG [K23M], the protein stability index falls from 2.96 to 2.16.

First: VTEDLRLKDWEHSIALRNISLAAG [K23A]
Second: VTEDLRLKDWEHSIALRNISLAIG [K23I]
The protein stability index of the first is higher: 3.04 for the first, 2.36 for the second.

Compared with VTEDLRLKDWEHSIALRNISLACG [K23C], VTEDLRLKDWEHSIALRNISLAWG [K23W] is lower in protein stability index: 3.1 for the first, 2.22 for the second.

First: VTEDLRLKDWEHSIALRNISLALG [K23L]
Second: VTEDLRLKDWEHSIALRNISLAGG [K23G]
The protein stability index of the first is lower: 2.95 for the first, 3.14 for the second.

First: VTEDLRLKDWEHSIALRNISLAVG [K23V]
Second: VTEDLRLKDWEHSIALRNISLAQG [K23Q]
The protein stability index of the first is lower: 2.29 for the first, 3.09 for the second.

Going from VTEDLRLKDWEHSIALRNISLAPG [K23P] to VTEDLRLKDWEHSIALRNISLAFG [K23F], the protein stability index falls from 3.44 to 2.35.

Going from VTEDLRLKDWEHSIALRNISLAHG [K23H] to VTEDLRLKDWEHSIALQNISLAKG [R17Q], the protein stability index falls from 3.29 to 3.21.

First: VTEDLRLKDWEHSIALHNISLAKG [R17H]
Second: VTEDLRLKDWEHSIALSNISLAKG [R17S]
The protein stability index of the first is lower: 3.41 for the first, 3.77 for the second.

First: VTEDLRLKDWEHSIALWNISLAKG [R17W]
Second: VTEDLRLKDWEHSIALLNISLAKG [R17L]
The protein stability index of the first is higher: 2.26 for the first, 1.8 for the second.

Compared with VTEDLRLKDWEHSIALFNISLAKG [R17F], VTEDLRLKDWEHSIALANISLAKG [R17A] is higher in protein stability index: 2.49 for the first, 3.5 for the second.

Going from VTEDLRLKDWEHSIALKNISLAKG [R17K] to VTEDLRLKDWEHSIALTNISLAKG [R17T], the protein stability index falls from 3.38 to 3.19.

First: VTEDLRLKDWEHSIALDNISLAKG [R17D]
Second: VTEDLRLKDWEHSIALENISLAKG [R17E]
The protein stability index of the first is lower: 3.94 for the first, 4.06 for the second.

Going from VTEDLRLKDWEHSIALYNISLAKG [R17Y] to VTEDLRLKDWEHSIALCNISLAKG [R17C], the protein stability index rises from 2.58 to 2.84.

Going from VTEDLRLKDWEHSIALNNISLAKG [R17N] to VTEDLRLKDWEHSIALVNISLAKG [R17V], the protein stability index falls from 3.53 to 1.56.

Going from VTEDLRLKDWEHSIALGNISLAKG [R17G] to VTEDLRLKDWEHSIALMNISLAKG [R17M], the protein stability index falls from 3.62 to 2.56.

Going from VTEDLRLKDWEHSIALPNISLAKG [R17P] to VTEDLRLKDWEHSIALINISLAKG [R17I], the protein stability index falls from 3.56 to 2.07.

Variants of: B2
Test: as above
Details: c terminus: a fixed tail appended

Compared with CSQDLAKIMADIRAQYDELARKNR [K1C], DSQDLAKIMADIRAQYDELARKNR [K1D] is lower in protein stability index: 2.51 for the first, 2.05 for the second.

Compared with ASQDLAKIMADIRAQYDELARKNR [K1A], ESQDLAKIMADIRAQYDELARKNR [K1E] is lower in protein stability index: 2.58 for the first, 2.41 for the second.
